The values that follow come from patent US20240228596A1 (VIB VZW, published 2024).

Positions count from the first letter of the chain named.

The target in assay [1] is SARS-COV-2 RBD-SD1 (SARS-COV-2, UniProt P0DTC2 319-591). Put plainly: periplasmic extract ELISA.
In assay [2] the target is T1, SARS-COV-2 Wuhan WT Spike_del18 on VSV-delG pseudotyped particles (SARS-COV-2, UniProt P0DTC2 14-1255). Put plainly: cell-based or functional assay.
Assay [3] concerns the target T1, SARS-COV-2 Wuhan WT Spike_del18 on …. Put plainly: cell-based or functional assay. The source holds these as a separate data set.
Assay [4] deals with SARS-COV-1 spike protein on VSV-delG pseudotyped particles (SARS-COV-1, UniProt P59594 14-1255). Put plainly: cell-based or functional assay.
Assay [5] addresses T2, RBD of HKU3 sarbecovirus displayed on yeast cells (HKU3 sarbecovirus, UniProt Q3LZX1 322-504). Put plainly: flow cytometry, yeast-displayed RBD (data not shown).
The target of assay [6] is T1, SARS-COV-2 Wuhan WT Spike_del18 on …. Put plainly: cell-based or functional assay. This is another data set of the same source.
Assay [7] has as its target T2, RBD of HKU3 sarbecovirus displayed on …. Nature of the assay: flow cytometry, yeast-displayed RBD.
Assay [8] addresses T3, RBD of SARS-COV-1 displayed on yeast cells (SARS-COV-1, UniProt P59594 318-517). Put plainly: flow cytometry, yeast-displayed RBD (data not shown).
Assay [9] concerns the target RBD of Rp3 sarbecovirus displayed on yeast cells (Rp3 sarbecovirus, UniProt Q3I5J5 322-503). The assay is described as above.
Assay [10] has as its target T3, RBD of SARS-COV-1 displayed on yeast …. Put plainly: flow cytometry, yeast-displayed RBD.

B1: VHH4.2XAS58 (VHH)
VHH: QVQLQESGGGLVQSGGSLRLSCAGSGFPLEAFSIGWFRQAPGKEREFLAAITFNSDATYYADSVKGRFTISRDNAKNTAYLQMNSLKPDDTAVYSCAAGGNHYNPQYYHDYDKYDHWGQGTQVTVFS
Turning to B1, the binding result in assay [1] is “binds”.

B2: VHH3.42 (VHH)
VHH: QVQLQESGGGLVQPGGSLRLSCAASGSAVSINDMGWYRQPPGKQRELVATITKTGSTNYADSVKGRFTISRDNAKNAVYLEMNSLKPEDTATYYCNAWLPYGMGPDYYGMELWGKGTQVTVSS
As to B2, in assay [2], the “neutralization IC50” value is 54.8 nM. For the same molecule, in assay [3], the “IC50 Mean VSV-dG-spike SARS-COV-2” value was determined as 0.8 µg/mL. The “IC50 Mean VSV-dG-spike SARS-COV-1” value in assay [4] was 0.19 µg/mL. For the same molecule, in assay [5], the binding result is reported as “binds”.

B3: VHH3.92 (VHH)
VHH: B2 VHH with S27K, N32S, S56N, V63A, K64Q, N76S, N83A, T92V
Take B3: the “neutralization IC50” value in assay [2] was found to be 13.6 nM. Also, the “IC50 Mean VSV-dG-spike SARS-COV-2” value in [3] came to 0.21 µg/mL. Further, in assay [5], the binding result is given as “binds”.

B4: VHH3.117 (VHH)
VHH: B2 VHH with S27K, N32S, V63A, K64Q, A74T, N76S, N83K, T92V
B4: the “neutralization IC50” value in assay [2] was determined as 13.7 nM. For the same molecule, the “IC50 Mean VSV-dG-spike SARS-COV-2” value in [3] came to 0.2 µg/mL. The “IC50 Mean VSV-dG-spike SARS-COV-1” value in assay [4] was determined as 0.016 µg/mL. Besides, the “IC50 ug/ml, pseudoneutralization assay” value in assay [6] stood at 0.539 µg/mL. In assay [7], the binding result is given as “binds”.

B5: VHH3.83 (VHH)
VHH: QVQLQESGGGLVQPGDSLRLSCVLSGGVFTSYAMGWFRQAPGKEREFLAAITFNSDATYYADSVKGRFTISRDNAKNTAYLQMNSLKPNDTAVYSCAAGGNHYNPQYYHDYDKYDHWGQGTQVTVSS
Turning to B5, the “IC50 ug/ml, pseudoneutralization assay” value in [6] was found to be 0.262 µg/mL. The binding result in assay [8], in assay [9] and in assay [5] was “binds” throughout.

B6: VHH4.2XAS43 (VHH)
VHH: B5 VHH with P14A, R19T, V23A, L24A, G27R, V28T, F29G, T30S, S31N, N89D
On to B6, for which the binding result in assay [1] is reported as “binds”.

B7: VHH4.2XAS31 (VHH)
VHH: QVQLQESGGGFVQAGGSLRLSCATSGHRFSDYAVAWFRQTPGKEREFLAAITFNSDATYYADSVKGRFTISRDNAKNTAYLQMNSLKPDDTAVYSCAAGGNHYNPQYYHDYDKYDHWGQGTQVTVSS
Take B7: the binding result in [1] is listed as “binds”.

B8: VHH4.1XAS51 (VHH)
VHH: QVQLQESGGGLVQAGGSLRLSCTASTPTIKNYAMGWFRQAPGKEREFLAAITFNSDATYYADSVKGRFTISRDNAKNTAYLQMNSLKPDDTAVYSCAAGGNHYNPQYYHDYDKYDYWGQGTQVTVSS
As to B8, in assay [1], the binding result is reported as “binds”.

B9: VHH3.89 (VHH)
VHH: QVQLQESGGGLVQPGGSLRLSCAASGFTLDYYAIGWFREVPGKEREGLSRIDSSDGSTYYADSVKGRFTISRDNTKNIVYLQMNNLKPEDTAVYYCATDPIIQGRNWYWTGWGQGTQVTVSS
B9: the binding result in assay [10] and in [7] was “binds” each time.
